Assay results: publication PMC3159919 (Structure (London, England : 1993), 2011)
Changes are numbered by the printed parent chain. Names may count otherwise.

B1: wild type CCL5 (RANTES) (natural protein, UniProt P13501 24-91, looked up)
chain: SPYSSDTTPCCFAYIARPLPRAHIKEYFYTSGKCSNPAVVFVTRKNRQVCANPEKKWVREYINSLEMS
B2: CCL5 E66S mutant (natural protein, UniProt P13501 24-91, looked up)
chain: B1 chain with E66S

What was measured:
[1] = molecular target: the molecule itself; assay: pulse gradient diffusion NMR + NMR spin relaxation
[2] = molecular target: the molecule itself; assay: NMR residual dipolar couplings

Protein	stoichiometry N [1]	binding result [2]
B1	4	–
B2	–	binds
